In the supplement of paper PMC10724198:

How the values were obtained:
Saccharomyces cerevisiae [1] = assay: protein stability index of tFT-peptide fusion in wild type (PSI (0-1 scale)); higher = more stable (slower turnover); conditions: genetic background: wild type
Saccharomyces cerevisiae [2] = assay: protein stability index of tFT-peptide fusion in deletion strain of DOA10 (PSI (0-1 scale)); higher = more stable (slower turnover)
Method: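 MPS profiling in S. cerevisiae of two library types built from selected 12-aa C-degron peptides (IN1, IN2, LN1, LN3, VN2, R1-R5, W1-W3, Atg1 and Rpa12 C-termini): saturation mutagenesis libraries and C-terminal +1 capping libraries (13 aa). Each peptide is fused to the C-terminus of a sfGFP-mCherry timer, after a GGGS linker. Cells are FACS-sorted into 8 mCherry/sfGFP bins and sequenced. PSI runs from 0 (unstable) to 1 (stable), measured once in wild type and in the das1Δ or doa10Δ background.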
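Wherever protein stability index of tFT-peptide fusion in deletion strain of DOA10 is given: PSI per variant is the weighted mean of its sequencing read distribution over the sorted stability bins, counting only variants with over 10 reads summed across bins.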
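Wherever protein stability index of tFT-peptide fusion in wild type is given: PSI derived as read-weighted mean over the 8 sorting bins, only variants exceeding 10 total reads kept, mCherry placed adjacent to the peptide and sfGFP distal.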

Sequence	protein stability index (Saccharomyces cerevisiae [1])	protein stability index (Saccharomyces cerevisiae [2])
CLVSLPSLLFFR	0.0935	0.667
GLWMCSVGCWFR	0.315	0.54
GLMMCSVGCWFR	0.237	0.506
GLYMCSVGCWDR	0.627	0.665
RSLRVLLPLYIR	0.255	0.596
ANTLPMCPLLLR	0.442	0.649
RSLRVLLPLYFRF	0.195	0.584
RSLAVLLPLYFR	0.34	0.68
CLVSLMILLFFR	0.256	0.398
SITLPMCPLLLR	0.248	0.65
VVTRLDAIYFRI	0.302	0.671
RSLRVALPLYFR	0.189	0.675
CLPSLPILLFFR	0.0469	0.632
AITKPMCPLLLR	0.458	0.651
AITLPMCPLFLR	0.184	0.67
RSLRVLLPLYWR	0.301	0.658
RSLRVLLTLYFR	0.391	0.511
CLVSLPKLLFFR	0.0835	0.662
GLYMCSVGCWFY	0.398	0.52
RSLRVLLPLEFR	0.601	0.679
RVTRLDAIYFCI	0.378	0.435
AITLPMCVLLLR	0.0936	0.608

Sequence	protein stability index (Saccharomyces cerevisiae [1])	protein stability index (Saccharomyces cerevisiae [2])
RVTRLDNIYFRI	0.484	0.702
RSRRVLLPLYFR	0.297	0.702
RSSRVLLPLYFR	0.346	0.699
RVTRLDAIYFPI	0.703	0.731
RVTRIDAIYFRI	0.337	0.693
CEVSLPILLFFR	0.066	0.635
RVTRLDAIYFRIG	0.335	0.408
FSLRVLLPLYFR	0.268	0.608
RSLRVLWPLYFR	0.181	0.676
QSLRVLLPLYFR	0.283	0.659
RVTRVDAIYFRI	0.442	0.68
CLVSLPIMLFFR	0.0325	0.607
MSLRVLLPLYFR	0.314	0.622
CLVSLPILLVFR	0.0722	0.527
RYLRVLLPLYFR	0.335	0.659
AITLQMCPLLLR	0.3	0.619
AITLPQCPLLLR	0.293	0.661
AIHLPMCPLLLR	0.278	0.65
RSLRVLLPLYPR	0.65	0.69
GLYMCCVGCWFR	0.303	0.504
CLVSLPILHFFR	0.628	0.667
AITLPMCPLLLH	0.502	0.621

Sequence	protein stability index (Saccharomyces cerevisiae [1])	protein stability index (Saccharomyces cerevisiae [2])
YLVSLPILLFFR	0.0822	0.538
GLYMCSVICWFR	0.231	0.314
RSLRVLLPLYFRQ	0.205	0.606
RVTRLDAINFRI	0.683	0.729
GLYYCSVGCWFR	0.249	0.605
RSLRVLLPLYFRH	0.284	0.616
GLYQCSVGCWFR	0.434	0.676
CLVSLPILFFFR	0.499	0.59
RVLRVLLPLYFR	0.369	0.634
GLYMISVGCWFR	0.17	0.341
GLYMCSVGCIFR	0.587	0.637
AITGPMCPLLLR	0.497	0.666
GLYMCSNGCWFR	0.397	0.703
RVTRLDWIYFRI	0.164	0.495
CLVSLPILLFCR	0.0631	0.25
AITLPMCPLLLN	0.135	0.189
RSPRVLLPLYFR	0.334	0.681
GMYMCSVGCWFR	0.271	0.713
GLYMCSCGCWFR	0.46	0.674
GLYMCSVLCWFR	0.274	0.369
AIVLPMCPLLLR	0.229	0.623
GLPMCSVGCWFR	0.267	0.699

Sequence	protein stability index (Saccharomyces cerevisiae [1])	protein stability index (Saccharomyces cerevisiae [2])
GNYMCSVGCWFR	0.405	0.699
GAYMCSVGCWFR	0.427	0.686
CLVSLPELLFFR	0.176	0.692
RVIRLDAIYFRI	0.331	0.653
AITLGMCPLLLR	0.373	0.661
CLVSLPILLFFM	0.299	0.479
RVTRLDALYFRI	0.32	0.705
GLYSCSVGCWFR	0.451	0.676
CLVSLPIHLFFR	0.0666	0.669
RILRVLLPLYFR	0.386	0.654
GLYMCSVGCSFR	0.621	0.651
RVCRLDAIYFRI	0.403	0.638
AITLPMCPYLLR	0.545	0.675
RSLRVQLPLYFR	0.136	0.685
RSLRVLLPDYFR	0.64	0.672
AITLNMCPLLLR	0.261	0.662
RSLRVLLPLYFRV	0.164	0.441
AITLPMCPLLER	0.648	0.741
CLVSSPILLFFR	0.272	0.645
AITSPMCPLLLR	0.491	0.672
CLVFLPILLFFR	0.0802	0.416
CSLRVLLPLYFR	0.0975	0.622

Sequence	protein stability index (Saccharomyces cerevisiae [1])	protein stability index (Saccharomyces cerevisiae [2])
AITLPMCWLLLR	0.0817	0.736
RVTRLDAIYFRIP	0.247	0.371
GDYMCSVGCWFR	0.462	0.692
CLVSLPILLKFR	0.178	0.652
AITLPYCPLLLR	0.18	0.666
GLLMCSVGCWFR	0.22	0.409
MITLPMCPLLLR	0.302	0.626
RSLRVSLPLYFR	0.15	0.687
CLVSLPILWFFR	0.566	0.61
AIFLPMCPLLLR	0.278	0.631
RVTRLGAIYFRI	0.317	0.634
RVTRLDAIYFRIV	0.0601	0.114
RVTQLDAIYFRI	0.524	0.685
CLVSLPIPLFFR	0.0774	0.643
ALYMCSVGCWFR	0.351	0.638
RSLRVLLLLYFR	0.217	0.432
CPVSLPILLFFR	0.0943	0.602
RSLRVLLPGYFR	0.624	0.673
RVTRLDAIYFRP	0.643	0.697
CLVSLPILLSFR	0.187	0.631
RRLRVLLPLYFR	0.292	0.668
AITLPTCPLLLR	0.289	0.681
